Measurements taken from IntAct's records for PubMed 31515488.

B1: Cyclic AMP-dependent transcription factor ATF-4 (Homo sapiens), P18848 (parent)
chain: MTEMSFLSSEVLVGDLMSPFDQSGLGAEESLGLLDDYLEVAKHFKPHGFSSDKAKAGSSEWLAVDGLVSPSNNSKEDAFSGTDWMLEKMDLKEFDLDALLGIDDLETMPDDLLTTLDDTCDLFAPLVQETNKQPPQTVNPIGHLPESLTKPDQVAPFTFLQPLPLSPGVLSSTPDHSFSLELGSEVDITEGDRKPDYTAYVAMIPQCIKEEDTPSDNDSGICMSPESYLGSPQHSPSTRGSPNRSLPSPGVLCGSARPKPYDPPGEKMVAAKVKGEKLDKKLKKMEQNKTAATRYRQKKRAEQEALTGECKELEKKNEALKERADSLAKEIQYLKDLIEEVRKARGKKRVP

Variants of: B1
Settings: with ldoc1_human LDOC1, O95751
Sequence of ldoc1_human LDOC1, O95751 (O95751 whole entry): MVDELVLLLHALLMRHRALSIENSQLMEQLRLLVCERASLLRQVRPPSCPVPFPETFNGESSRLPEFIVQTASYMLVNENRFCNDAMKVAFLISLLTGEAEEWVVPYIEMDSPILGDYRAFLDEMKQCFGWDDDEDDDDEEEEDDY

effect of a mutation on the interaction	Variant
with no effect	MTEMSFLSSEVLVGDLMSPFDQSGLGAEESLGLLDDYLEVAKHFKPHGFSSDKAKAGSSEWLAVDGLVSPSNNSKEDAFSGTDWMLEKMDLKEFDLDALLGIDDLETMPDDLLTTLDDTCDLFAPLVQETNKQPPQSVNPIGHLPESLTKPDQVAPFTFLQPLPLSPGVLSSTPDHSFSLELGSEVDITEGDRKPDYTAYVAMIPQCIKEEDTPSDNDSGICMSPESYLGSPQHSPSTRGSPNRSLPSPGVLCGSARPKPYDPPGEKMVAAKVKGEKLDKKLKKMEQNKTAATRYRQKKRAEQEALTGECKELEKKNEALKERADSLAKEIQYLKDLIEEVRKARGKKRVP [T137S]
disrupting interaction strength	MTEMSFLSSEVLVGDLMSPFDQSGLGAEESLGLLDDYLEVAKHFKPHGFSSDKAKAGSSEWLAVDGLVSPSNNSKEDAFSGTDWMLEKMDLKEFDLDALLGIDDLETMPDDLLTTLDDTCDLFAPLVQETNKQPPQTVNPIGHLPESLTKPDQVAPFTFLQPLPLSPGVLSSTPDHSFSLELGSEVDITEGDRKPDYTAYVAMIPQCIKEEDTPSDNDSGICMSPESYLGSPQHSPSTRGSPNRSLPSPGVLCGSARPKPYDPPGEKMVAAKVKGEKLDKKLKKMEQNKTAATRYRQKKRAEQEALTGECKELEKKNEALKDRADSLAKEIQYLKDLIEEVRKARGKKRVP [E322D]
with no effect	MTEMSFLSSEVLVGDLMSPFDQSGLGAEESLGLLDDYLEVAKHFKPHGFSSDKAKAGSSEWLAVDGLVSPSNNSKEDAFSGTDWMLEKMDLKEFDLDALLGIDDLETMPDDLLTTLDDTCDLFAPLVQETNKQPPQTVNPIGHLPESLTKPDQVAPFTFLQPLPLSPGVLSSTPDHSFSLELGSEVDITEGDRKPDYTAYVAMIPQCIKEEDTPSDNDSGICMSPESYLGSPQHSPSTRGSPNRSLPSPGVLCGSARAKPYDPPGEKMVAAKVKGEKLDKKLKKMEQNKTAATRYRQKKRAEQEALTGECKELEKKNEALKERADSLAKEIQYLKDLIEEVRKARGKKRVP [P258A]

Variants of: B1
Settings: with fbw1a_human BTRC

effect of a mutation on the interaction	Variant
with no effect	MTEMSFLSSEVLVGDLMSPFDQSGLGAEESLGLLDDYLEVAKHFKPHGFSSDKAKAGSSEWLAVDGLVSPSNNSKEDAFSGTDWMLEKMDLKEFDLDALLGIDDLETMPDDLLTTLDDTCDLFAPLVQETNKQPPQSVNPIGHLPESLTKPDQVAPFTFLQPLPLSPGVLSSTPDHSFSLELGSEVDITEGDRKPDYTAYVAMIPQCIKEEDTPSDNDSGICMSPESYLGSPQHSPSTRGSPNRSLPSPGVLCGSARPKPYDPPGEKMVAAKVKGEKLDKKLKKMEQNKTAATRYRQKKRAEQEALTGECKELEKKNEALKERADSLAKEIQYLKDLIEEVRKARGKKRVP [T137S]
disrupting interaction strength	MTEMSFLSSEVLVGDLMSPFDQSGLGAEESLGLLDDYLEVAKHFKPHGFSSDKAKAGSSEWLAVDGLVSPSNNSKEDAFSGTDWMLEKMDLKEFDLDALLGIDDLETMPDDLLTTLDDTCDLFAPLVQETNKQPPQTVNPIGHLPESLTKPDQVAPFTFLQPLPLSPGVLSSTPDHSFSLELGSEVDITEGDRKPDYTAYVAMIPQCIKEEDTPSDNDSGICMSPESYLGSPQHSPSTRGSPNRSLPSPGVLCGSARPKPYDPPGEKMVAAKVKGEKLDKKLKKMEQNKTAATRYRQKKRAEQEALTGECKELEKKNEALKDRADSLAKEIQYLKDLIEEVRKARGKKRVP [E322D]
with no effect	MTEMSFLSSEVLVGDLMSPFDQSGLGAEESLGLLDDYLEVAKHFKPHGFSSDKAKAGSSEWLAVDGLVSPSNNSKEDAFSGTDWMLEKMDLKEFDLDALLGIDDLETMPDDLLTTLDDTCDLFAPLVQETNKQPPQTVNPIGHLPESLTKPDQVAPFTFLQPLPLSPGVLSSTPDHSFSLELGSEVDITEGDRKPDYTAYVAMIPQCIKEEDTPSDNDSGICMSPESYLGSPQHSPSTRGSPNRSLPSPGVLCGSARAKPYDPPGEKMVAAKVKGEKLDKKLKKMEQNKTAATRYRQKKRAEQEALTGECKELEKKNEALKERADSLAKEIQYLKDLIEEVRKARGKKRVP [P258A]

Variants of: B1
Settings: with tthy_human TTR

effect of a mutation on the interaction	Variant
with no effect	MTEMSFLSSEVLVGDLMSPFDQSGLGAEESLGLLDDYLEVAKHFKPHGFSSDKAKAGSSEWLAVDGLVSPSNNSKEDAFSGTDWMLEKMDLKEFDLDALLGIDDLETMPDDLLTTLDDTCDLFAPLVQETNKQPPQSVNPIGHLPESLTKPDQVAPFTFLQPLPLSPGVLSSTPDHSFSLELGSEVDITEGDRKPDYTAYVAMIPQCIKEEDTPSDNDSGICMSPESYLGSPQHSPSTRGSPNRSLPSPGVLCGSARPKPYDPPGEKMVAAKVKGEKLDKKLKKMEQNKTAATRYRQKKRAEQEALTGECKELEKKNEALKERADSLAKEIQYLKDLIEEVRKARGKKRVP [T137S]

Variants of: B1
Settings: with cc106_human CCDC106, Q9BWC9
Sequence of cc106_human CCDC106, Q9BWC9 (Q9BWC9 whole entry): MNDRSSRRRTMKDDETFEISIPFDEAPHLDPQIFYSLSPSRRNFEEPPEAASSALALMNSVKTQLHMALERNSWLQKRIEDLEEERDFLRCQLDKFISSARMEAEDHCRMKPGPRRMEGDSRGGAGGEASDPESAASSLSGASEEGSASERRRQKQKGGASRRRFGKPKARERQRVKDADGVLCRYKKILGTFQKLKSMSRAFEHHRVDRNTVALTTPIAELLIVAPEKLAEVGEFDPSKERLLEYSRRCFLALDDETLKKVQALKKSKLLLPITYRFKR

effect of a mutation on the interaction	Variant
disrupting interaction strength	MTEMSFLSSEVLVGDLMSPFDQSGLGAEESLGLLDDYLEVAKHFKPHGFSSDKAKAGSSEWLAVDGLVSPSNNSKEDAFSGTDWMLEKMDLKEFDLDALLGIDDLETMPDDLLTTLDDTCDLFAPLVQETNKQPPQTVNPIGHLPESLTKPDQVAPFTFLQPLPLSPGVLSSTPDHSFSLELGSEVDITEGDRKPDYTAYVAMIPQCIKEEDTPSDNDSGICMSPESYLGSPQHSPSTRGSPNRSLPSPGVLCGSARPKPYDPPGEKMVAAKVKGEKLDKKLKKMEQNKTAATRYRQKKRAEQEALTGECKELEKKNEALKDRADSLAKEIQYLKDLIEEVRKARGKKRVP [E322D]
with no effect	MTEMSFLSSEVLVGDLMSPFDQSGLGAEESLGLLDDYLEVAKHFKPHGFSSDKAKAGSSEWLAVDGLVSPSNNSKEDAFSGTDWMLEKMDLKEFDLDALLGIDDLETMPDDLLTTLDDTCDLFAPLVQETNKQPPQTVNPIGHLPESLTKPDQVAPFTFLQPLPLSPGVLSSTPDHSFSLELGSEVDITEGDRKPDYTAYVAMIPQCIKEEDTPSDNDSGICMSPESYLGSPQHSPSTRGSPNRSLPSPGVLCGSARAKPYDPPGEKMVAAKVKGEKLDKKLKKMEQNKTAATRYRQKKRAEQEALTGECKELEKKNEALKERADSLAKEIQYLKDLIEEVRKARGKKRVP [P258A]
